Data taken from the supplement of paper PMC9112550, “Optimization of the antimicrobial peptide Bac7 by deep mutational scanning” (BMC Biology, 2022).

Test system: Escherichia coli TOP10
Experiment: shrunken log2 fold change of peptide-encoding DNA abundance (4.5 h post-induction vs induction); higher = less antimicrobial activity (less host growth inhibition)
Conditions: time post-induction: 4.5 h; library: site-saturation at positions 5, 18, 19, 20
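Also: peptides expressed intracellularly from a pBAD plasmid library in pooled LB shake-flask culture, induced with 0.3% L-arabinose, DNA abundance read by NGS, three biological replicates, DESeq2 with apeglm shrinkage.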

| Sequence | shrunken log2 fold change |
| --- | --- |
| RRIRERPPRLPRPRPRPILAPRP | -0.349 |
| RRIRPRPPRLPRPRPRPHRVPRP | 0.164 |
| RRIRMRPPRLPRPRPRPAMSPRP | 0.177 |
| RRIRIRPPRLPRPRPRPCYSPRP | -0.0549 |
| RRIRHRPPRLPRPRPRPTDSPRP | 0.0894 |
| RRIRCRPPRLPRPRPRPKRIPRP | -0.143 |
| RRIRVRPPRLPRPRPRPQFFPRP | -0.0611 |
| RRIRKRPPRLPRPRPRPVWMPRP | 0.136 |
| RRIRSRPPRLPRPRPRPAHPPRP | 0.427 |
| RRIRDRPPRLPRPRPRPAYRPRP | -0.0687 |
| RRIRFRPPRLPRPRPRPNWPPRP | 0.333 |
| RRIRQRPPRLPRPRPRPLAMPRP | 0.294 |
| RRIRLRPPRLPRPRPRPWALPRP | 0.0419 |
| RRIRYRPPRLPRPRPRPHYSPRP | -0.124 |
| RRIRRRPPRLPRPRPRPCFWPRP | 0.406 |
| RRIRPRPPRLPRPRPRPEFKPRP | 0.26 |
| RRIRERPPRLPRPRPRPDTDPRP | 0.0402 |
| RRIRGRPPRLPRPRPRPGHQPRP | 0.124 |
| RRIRVRPPRLPRPRPRPLCYPRP | -0.4 |
| RRIRWRPPRLPRPRPRPEGRPRP | 0.65 |
| RRIRTRPPRLPRPRPRPPDKPRP | -0.146 |
| RRIRSRPPRLPRPRPRPPFPPRP | 0.256 |
| RRIRVRPPRLPRPRPRPNREPRP | -0.0873 |
| RRIRTRPPRLPRPRPRPSPCPRP | -0.0588 |
| RRIRVRPPRLPRPRPRPKTDPRP | -0.202 |

| Sequence | shrunken log2 fold change |
| --- | --- |
| RRIRQRPPRLPRPRPRPKQTPRP | -0.0544 |
| RRIRQRPPRLPRPRPRPGWGPRP | 0.957 |
| RRIRGRPPRLPRPRPRPTWCPRP | 0.521 |
| RRIRRRPPRLPRPRPRPFIWPRP | 0.0601 |
| RRIRNRPPRLPRPRPRPPRVPRP | 0.379 |
| RRIRWRPPRLPRPRPRPCSAPRP | 0.0988 |
| RRIRDRPPRLPRPRPRPLDFPRP | 0.0675 |
| RRIRVRPPRLPRPRPRPYFEPRP | -0.26 |
| RRIRDRPPRLPRPRPRPRHYPRP | 0.0264 |
| RRIRHRPPRLPRPRPRPEFQPRP | -0.0862 |
| RRIRKRPPRLPRPRPRPDYKPRP | -0.208 |
| RRIRHRPPRLPRPRPRPAHWPRP | -0.179 |
| RRIRSRPPRLPRPRPRPANTPRP | -0.268 |
| RRIRRRPPRLPRPRPRPPSGPRP | 0.682 |
| RRIRGRPPRLPRPRPRPGGKPRP | 0.555 |
| RRIRLRPPRLPRPRPRPMTPPRP | -0.023 |
| RRIRSRPPRLPRPRPRPKFIPRP | -0.482 |
| RRIRIRPPRLPRPRPRPYKNPRP | -0.814 |
| RRIRQRPPRLPRPRPRPYCHPRP | -0.0183 |
| RRIRHRPPRLPRPRPRPYPCPRP | -0.152 |
| RRIRRRPPRLPRPRPRPPLWPRP | 0.883 |
| RRIRGRPPRLPRPRPRPRHPPRP | 0.442 |
| RRIRQRPPRLPRPRPRPGQCPRP | -0.156 |
| RRIRYRPPRLPRPRPRPNDEPRP | -0.034 |
| RRIRARPPRLPRPRPRPEILPRP | 0.74 |
